Measurements: patent US20050048605A1 (Takeda / Millennium, published 2005)
Residue numbers refer to the chain shown, from its start. Where no end group is shown, it is not given here. [ ]: non-standard residue; d: D form. The star is where a group is joined. Nle = CCCC[C@H](N)C(=O)O; 125I = [125I]*

Columns and labels:
[1] = target: T1, rat-derived G protein-coupled receptor protein TGR23-5 (rat TGR23-5) (rat, UniProt P0C0L6 1-372); assay: cell-based or functional assay
T1 sequence: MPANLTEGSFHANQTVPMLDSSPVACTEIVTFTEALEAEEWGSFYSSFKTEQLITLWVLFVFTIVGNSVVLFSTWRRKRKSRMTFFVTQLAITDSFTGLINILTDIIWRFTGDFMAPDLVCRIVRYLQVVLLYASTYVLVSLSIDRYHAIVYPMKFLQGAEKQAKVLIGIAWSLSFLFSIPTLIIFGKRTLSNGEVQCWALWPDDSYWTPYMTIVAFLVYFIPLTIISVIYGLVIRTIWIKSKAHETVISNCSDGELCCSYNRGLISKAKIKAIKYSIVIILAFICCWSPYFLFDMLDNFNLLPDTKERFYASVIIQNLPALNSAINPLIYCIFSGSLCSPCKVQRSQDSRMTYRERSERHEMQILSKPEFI

[2] = target: T2, rat-derived G protein-coupled receptor protein TGR23-1 (rat TGR23-1) (rat, UniProt P0C0L6 1-372); assay: cell-based or functional assay
T2 sequence: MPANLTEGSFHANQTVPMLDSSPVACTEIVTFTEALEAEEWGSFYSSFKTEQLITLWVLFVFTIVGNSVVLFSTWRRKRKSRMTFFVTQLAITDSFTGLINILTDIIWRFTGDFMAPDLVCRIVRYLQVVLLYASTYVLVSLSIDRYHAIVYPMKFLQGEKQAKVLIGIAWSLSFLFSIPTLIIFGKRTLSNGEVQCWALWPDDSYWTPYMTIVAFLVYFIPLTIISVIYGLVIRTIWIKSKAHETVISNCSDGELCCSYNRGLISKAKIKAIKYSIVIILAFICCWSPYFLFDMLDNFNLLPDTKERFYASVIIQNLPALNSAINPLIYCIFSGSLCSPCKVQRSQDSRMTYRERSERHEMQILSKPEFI

[3] = target: T3, human-derived G protein-coupled receptor protein TGR23-2 (human TGR23-2) (human, UniProt Q6W5P4 1-371); assay: competition with [Nle10,125I-Tyr15] human TGR23-2 ligand (1-20); membrane fraction of TGR23-2 expressing CHO cells at 1 ug/ml; filter assay
T3 construct: Expressed in CHO dhfr- cells (pAKKO-TGR23-2)
T3 chain: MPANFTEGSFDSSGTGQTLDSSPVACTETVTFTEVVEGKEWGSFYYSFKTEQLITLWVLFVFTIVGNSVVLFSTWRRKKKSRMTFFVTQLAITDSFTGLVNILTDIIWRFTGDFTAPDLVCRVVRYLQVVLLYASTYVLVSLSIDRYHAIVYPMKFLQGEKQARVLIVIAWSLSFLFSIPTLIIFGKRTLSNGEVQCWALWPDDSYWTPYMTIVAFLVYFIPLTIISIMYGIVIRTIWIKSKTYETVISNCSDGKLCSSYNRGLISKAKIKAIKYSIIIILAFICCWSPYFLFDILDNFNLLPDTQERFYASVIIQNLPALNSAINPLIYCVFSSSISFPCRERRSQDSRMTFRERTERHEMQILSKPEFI
Protocol: Cell membrane fraction prepared from TGR23-1 expressing CHO cells and TGR23-2 expressing CHO cells was diluted to various concentration with assay buffer (20 mM Tris-HCl, 5 mM EDTA, 0.1% BSA, 0.5 mM PMSF, 1 μg/ml Pepstatin, 4 μg/ml E-64, 20 μg/ml Leupeptin, pH7.4), and 200 μl each of the diluent was dispensed into polypropilene test tube (Falcon 2053). In order to determine an amount of maximum binding, 2 μl of DMSO and 2 μl of 10 nM [Nle¹⁰, ¹²⁵I-Tyr¹⁵] human TGR23-2 ligand (1-20) were added to the membrane fraction solution. Further, in order to determine a non-specific binding, 2 μl of 1 μM [Nle¹⁰, Tyr¹⁵] human TGR23-2 ligand (1-20)/DMSO solution was added to the membrane fraction solution. The reaction was done at 25° C. for 90 minutes, and the reaction mixture was filtered by suction filtration using Whatman glassfilter (GF-F) treated with polyethyleneimine. After filtration, a radioactivity remaining on the filter was counted using γ-counter, and an amount of specific binding was estimated by subtracting an amount of non-specific binding from an amount of maximum binding. When the concentration of membrane fraction was changed, a specific binding of [Nle¹⁰, ¹²⁵I-Tyr¹⁵] human TGR23-2 ligand (1-20) was perceived depending on the concentration of membrane fraction. An inhibition of binding activity of the test specimen to TGR23-1 receptor or TGR23-2 receptor (inhibition rate (%)) was represented by a ratio of the value to the specific binding (SB), wherein the value is calculated by subtracting the radioactivity remaining on the filter (X) in the case of adding the test sample and [Nle¹⁰, ¹²⁵I-Tyr¹⁵] human TGR3-2 ligand (1-20) from the total binding (TB) ((TB−X)/SB×100 (%)).

[4] = target: T4, human-derived G protein-coupled receptor protein TGR23-1 (human TGR23-1) (human, UniProt Q6W5P4 1-371); assay: radioligand filter binding on the membrane fraction of TGR23-1 expressing CHO cells
T4 construct: Expressed in CHO dhfr- cells (pAKKO-TGR23-1)
T4 sequence: T3 chain with I107N, R344Q
Excerpt: (§1) The Receptor Binding Assay Using [Nle¹⁰, ¹²⁵I-Tyr¹⁵] human TGR3-2 ligand (1-20) Using using [Nle¹⁰, ¹²⁵I-Tyr¹⁵] human TGR23-2 ligand (1-20) prepared by the method described in Example 26, and a cell membrane fraction prepared from TGR23-2 expressing CHO cells as described in Example 24 and a cell membrane fraction prepared from TGR23-1 expressing CHO cells by the similar method to that described in Example 24 using TGR23-1 expressing CHO cells instead of TGR23-2 expressing CHO cells, a receptor binding assay was carried out as follows.
(§2) Cell membrane fraction prepared from TGR23-1 expressing CHO cells and TGR23-2 expressing CHO cells was diluted to various concentration with assay buffer (20 mM Tris-HCl, 5 mM EDTA, 0.1% BSA, 0.5 mM PMSF, 1 μg/ml Pepstatin, 4 μg/ml E-64, 20 μg/ml Leupeptin, pH7.4), and 200 μl each of the diluent was dispensed into polypropilene test tube (Falcon 2053). In order to determine an amount of maximum binding, 2 μl of DMSO and 2 μl of 10 nM [Nle¹⁰, ¹²⁵I-Tyr¹⁵] human TGR23-2 ligand (1-20) were added to the membrane fraction solution. […] After filtration, a radioactivity remaining on the filter was counted using γ-counter, and an amount of specific binding was estimated by subtracting an amount of non-specific binding from an amount of maximum binding. […]

[5] = target: T2, rat-derived G protein-coupled receptor …; assay: saturation binding with Scatchard analysis on the membrane fraction of rat TGR23-1 expressing CHO cells; row head 'Binding Constant'; text gives dissociation constant 141±8.71 (pM)
Protocol: (§3) The membrane fractions of rat TGR23-1 expressing CHO cells and rat TGR23-5 expressing CHO cells, which were prepared as described above, were suspended in binding buffer (20 mM Tris-HCl (pH7.4), 5 mM EDTA, 0.1% BSA, 0.5 mM PMSF, 0.1 μg/ml of pepstatin, 20 μg/ml of leupeptine and 4 μg/ml of E-64). The concentrtion was adjusted to 10 μg/ml. The solutiion was used as a membrane fraction solution for binding saturation. Total binding of [Nle¹⁰, ¹²⁵I-Tyr¹⁵] human TGR23-2 ligand (1-20), which was prepared by the method described in Example 26, to the membrane fractions, was obtained by the following method.
(§4) To 200 μl of the membrane fraction solution for binding saturation, 2 μl of dimethylsulfoxide (DMSO) and 2 μl of [Nle¹⁰, ¹²⁵I-Tyr¹⁵] human TGR23-2 ligand (1-20) having various concentrations, were added, and then the mixture was incubated at 25° C. for 90 minutes. […] The radioactivity of [Nle¹⁰, ¹²⁵I-Tyr¹⁵] human TGR23-2 ligand (1-20) trapped on the glass filter was measured by counter, and the obtained value was determined as the total binding. […] A specific binding at a given concentration of [Nle¹⁰, ¹²⁵I-Tyr¹⁵] human TGR23-2 ligand (1-20) is calculated by subtracting the non-specific binding from the total binding at the same concentration. […]

[6] = target: T3, human-derived G protein-coupled …; assay: radioligand filter binding on the membrane fraction of TGR23-2 expressing CHO cells
Excerpt: as §1, §2

[7] = target: T1, rat-derived G protein-coupled receptor …; assay: saturation binding with Scatchard analysis on the membrane fraction of rat TGR23-5 expressing CHO cells; row head 'Binding Constant'; text gives dissociation constant 125±8.36 (pM)
Protocol: as §3, §4

In the case of SFRNGVGSGVKKTSFRRA [rat TGR23-2 ligand (1-18)], the “Intracellular Ca increasing activity (EC50)” value [1] is reported as 14 nM, the “Intracellular Ca increasing activity (EC50)” value [2] is reported as 0.19 nM and the IC50 [3] is reported as 0.0928 nM.

In the case of SFRNGVGTG[Nle]KKTSY(125I)QRAKS [[Nle^10, ^125I-Tyr^15] human TGR23-2 ligand (1-20)], the binding result [4] is reported as “binds”, the Kd [5] is reported as 0.141 nM and the binding result [6] is reported as “binds”. For the same binder, the Kd [7] was 0.125 nM.

With SFRNGVGTGMKKTSFQRAKS (also called human TGR23 ligand (1-20)) [human TGR23-2 ligand (1-20)] the IC50 [3] was 0.105 nM.

In the case of SFRNGVGSGAKKTSFRRAKQ [mouse TGR23-2 ligand (1-20)], the IC50 [3] is reported as 0.0245 nM.
